Measured values reported in the nanobody polyreactivity screen of Harvey et al. (2022).

Assay: yeast display, Sf9 membrane polyspecificity reagent, FACS + sequencing; frameworks hold sequencing errors
In short: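 Galactose induction of a Saccharomyces cerevisiae BJ5465 synthetic nanobody display library ran 36–48 hours. The cells were then stained for 1 hour at 4 °C with 10% biotinylated, detergent-solubilized Sf9 membrane reagent, pulled down on streptavidin microbeads and FACS-sorted into low and high (top ~1%) gates on expression and reagent-binding fluorescence. Labels for polyreactivity follow the gate of origin.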
With “QVQLVESGGGLVQAGGSLRLSCAASGFTCGSYTMGWYRQAPGKERELVAVISRSGSSTYYADSVKGRFTISRDNAKNTVYLQMNSLKPEDTAVYYCNADYSRLGYDYWGQGTQVTVSS” the “polyreactivity (PSR sort gate)” value was “high polyreactivity”.
For “QVQLVESGGGLVQAGGSLRLSCAASGFTCTRNAMGWFRQAPGKERELVAAISSSAGSTSYADSVKGRFTISRDNAKNTDYLQMNSLKPEDTAVYYCATEGSYYSWVGKVGYRYQYHYWGQGTQVTVSS”, the “polyreactivity (PSR sort gate)” value was “high polyreactivity”.
For “QVQLVESGGGLVQAGGSLRLSCAASGFTFAANAMGWYRQAPGKERELVAAISSDSTYADSVKGRFTISRDNAKNTVYLQMNSLKPEDTAVYYCAKDRYIVNSPGLDYWGQGTQVTVSS”, the “polyreactivity (PSR sort gate)” value was “low polyreactivity”.
With “QVQLVESGGGLVQAGGSLRLSCAASGFTFAFYAMGWYRQAPGKERELVAAISWDGVTTYYADSVKGRFTISRDNAKNTVYLQMNSLKPEDTAVYYCNVQWYGGYDYWGQGTQVTVSS” the “polyreactivity (PSR sort gate)” value was “low polyreactivity”.
With “QVQLVESGGGLVQAGGSLRLSCAASGFTFAFYAMGWYSPAPGKVRELVAAISWDGVTTYYADSVKGRFTISRDNAKNTVYLQMNSLKPEDTAVYYCAADYPDYAASFWPSGMYYWGQGTQVTVSS” the “polyreactivity (PSR sort gate)” value was “low polyreactivity”.
For “QVQLVESGGGLVQAGGSLRLSCAASGFTFAGYAMGWYRQAPGKERELVAGIRSSGARTYYADSAKGRFTISRDNAKNTVYFKMNSLKPEDTADYYFAKTDGFYRGYGYWGQGTKVTVSS”, the “polyreactivity (PSR sort gate)” value was “low polyreactivity”.
With “QVQLVESGGGLVQAGGSLRLSCAASGFTFAHNAMGWYRQAPGKERELVAAITRSGGSTYYADSVKGRFTISRDNAKNTVYLQMNSLKPEDTAVYYCNAGRRGSGYGYWGQGTQVTVSS” the “polyreactivity (PSR sort gate)” value was “high polyreactivity”.
In the case of “QVQLVESGGGLVQAGGSLRLSCAASGFTFAKNAMGWYRQAPGKERELVATISRSGGSTYYADSVKGRFTISRDNAKNTVYLQMNSLKPEDTAVYYCAADRSYGVLGNEGGYWGQGTQVTVSS”, the “polyreactivity (PSR sort gate)” value is reported as “high polyreactivity”.
In the case of “QVQLVESGGGLVQAGGSLRLSCAASGFTFAKYAMGWYRQAPGKERELVAAISSSGGRTYYADSVQGRFTLSRDNAKNTDYLQMNSLKPEDTAVYYCAADFSGPFDYWGQGTQVTVSS”, the “polyreactivity (PSR sort gate)” value is reported as “high polyreactivity”.
For “QVQLVESGGGLVQAGGSLRLSCAASGFTFALYAMGWYRQAPGKERELVAAISSSGGSTYYADSVKGRFTISRDNAKNTVYLQMNSLKPEDTAVYYCNATRPYRYQSHTRTPRRGYWGQGTQVTVSS”, the “polyreactivity (PSR sort gate)” value was “high polyreactivity”.
With “QVQLVESGGGLVQAGGSLRLSCAASGFTFANNAMGWYRQAPGKERELVAAITSSGTRTYYADSVKGRFTISRDNAKNTVYLQMNSLKPEDTAVYYCAADKPGRPSRMYYWGQGTQVTVSS” the “polyreactivity (PSR sort gate)” value was “high polyreactivity”.
In the case of “QVQLVESGGGLVQAGGSLRLSCAASGFTFAPNAMAWYRQAPGKERELVAAITWSGGSTYYADSVKGRFTISRDNAKNTVYLQMNSLKPEDTAVYYCNAVSRSTVTGQHDYWGQGTQVTVSS”, the “polyreactivity (PSR sort gate)” value is reported as “high polyreactivity”.
With “QVQLVESGGGLVQAGGSLRLSCAASGFTFAPNAMGWYRPAPGKEWELVAAISSASSTYYADSVKGRFTISRDNAKYNVYLQMKSLLPEDTAVYYCNAYYWFGPGRDYWGQGTQVTVSS” the “polyreactivity (PSR sort gate)” value was “high polyreactivity”.
For “QVQLVESGGGLVQAGGSLRLSCAASGFTFAPYAMGWYRQAPGKERELVAAISSNGGSTYYADSVKGRFTISRDNAKNTVYLQMISMKPEYTAVYYCAVTSIGYTRYYYWGHGTQVTVSS”, the “polyreactivity (PSR sort gate)” value was “high polyreactivity”.
In the case of “QVQLVESGGGLVQAGGSLRLSCAASGFTFAQYTMGWYRQAPGKERELVAAIRVGGGSTYYADSVKGRFTISRDNAKNTVYLQMNSLKPEDTAVYYCAKRTYSRKFRGAYNYWGQGTQVTVSS”, the “polyreactivity (PSR sort gate)” value is reported as “high polyreactivity”.
With “QVQLVESGGGLVQAGGSLRLSCAASGFTFARNAMGWYRPAPGKERELVAGITSRGSSTSYADSVKGRFTISRDNAKNTVYLQMNSLKPEDTAVYYSAADRYSAYLYWDEYWGQGTQVTVSS” the “polyreactivity (PSR sort gate)” value was “high polyreactivity”.
With “QVQLVESGGGLVQAGGSLRLSCAASGFTFARYAMGWYRQAPGKEREFVAAIDKSGGSTYYADSVKGRFTISRDNAKNTVYLQMNSLKPEDTAVYYCAAVYSSYGRRYNSWGQGTQVTVSS” the “polyreactivity (PSR sort gate)” value was “high polyreactivity”.
With “QVQLVESGGGLVQAGGSLRLSCAASGFTFARYAMGWYRQAPGKERELVAAISISGGRTYYADSVKGRFSISRDNAKNTVYLQMNSLKPEDTAVYYCNKGHVPSYDYNYWGQGTQVTVSW” the “polyreactivity (PSR sort gate)” value was “high polyreactivity”.
For “QVQLVESGGGLVQAGGSLRLSCAASGFTFARYAMGWYRQAPGKERELVAAITYSGGRTYYAVSVKGRFTISRDNAKNTVYLQMNSLKPEDTAVYYCAVKHSSPGRYYYWGQGTQVTVSS”, the “polyreactivity (PSR sort gate)” value was “high polyreactivity”.
With “QVQLVESGGGLVQAGGSLRLSCAASGFTFARYAMGWYRQAPGKERELVAAMTYRGGSTYYADSVKGRFTISRDNAKNTVYLQMNSLKPEDTAVYYCNAGRLWFPGVPEYDYWGQGTQVTVSS” the “polyreactivity (PSR sort gate)” value was “high polyreactivity”.
With “QVQLVESGGGLVQAGGSLRLSCAASGFTFARYTMGWYRQAPGKERELVAAISSRGSSTYYADSVKGRFTISRDNAKNTVFLQMNSLKPEDTAVYYCAASPYDTQSLDYDYWGQGTQVTVSS” the “polyreactivity (PSR sort gate)” value was “high polyreactivity”.
In the case of “QVQLVESGGGLVQAGGSLRLSCAASGFTFARYTMGWYRQAPGKERELVAAISSRGSSTYYADSVKGRFTISRDNAKNTVYLQMNSLKPEDTAVYYCAASPYDTQTLDYAYWGQGTQVTVSS”, the “polyreactivity (PSR sort gate)” value is reported as “high polyreactivity”.
For “QVQLVESGGGLVQAGGSLRLSCAASGFTFATYAMGWYRQAPGKKGRLVAAISNAGSTKYADSVKGRFTISRDNAKNTVYLQMNSLKPEDTAVYYCAASTLYASSYYLYDYWGQGTQVTVSS”, the “polyreactivity (PSR sort gate)” value was “high polyreactivity”.
For “QVQLVESGGGLVQAGGSLRLSCAASGFTFAVYAMGWYRQAPGKERELVAAISRSGTRTYYADSVKGRFTISRDNAKNTVYLQMNSLKPEDTAVYYCAAPWTQILDYWGQGTQVTVSS”, the “polyreactivity (PSR sort gate)” value was “low polyreactivity”.
For “QVQLVESGGGLVQAGGSLRLSCAASGFTFAYNAMGWYRQAPGKERELDAAINSSGGTTYYADSVKGRFTISRDNAKNTVYLQMNSLKPEDTAVYYCAAVYSTSYSGSFPGYDYWGQGTQVTVSS”, the “polyreactivity (PSR sort gate)” value was “low polyreactivity”.
In the case of “QVQLVESGGGLVQAGGSLRLSCAASGFTFAYYAMGWDRQSPGNEREFVAAISSRGGSTYADSVKGRFTISRDNAKNTVYLQMNSLKPEDTAVYYCNAVVPRSRYFSWTYDYWGQGTQVTVSS”, the “polyreactivity (PSR sort gate)” value is reported as “high polyreactivity”.
With “QVQLVESGGGLVQAGGSLRLSCAASGFTFAYYAMGWYRPAPGKERELVATIRGGGSTNYADSVKGRFTISRDNAKNTVYLQMNSLKPEDTAVYYCAAGYVWYFDYFSAYYWGQGTQVTVSS” the “polyreactivity (PSR sort gate)” value was “high polyreactivity”.
For “QVQLVESGGGLVQAGGSLRLSCAASGFTFAYYAMGWYRQAPGKERELVAAISWTGGSTYYADSVKGRFTISRDNAKNTVYLQMNSLKPEDTAVYYCAARGYRYRSYDYWGQGTQVTVSS”, the “polyreactivity (PSR sort gate)” value was “high polyreactivity”.
With “QVQLVESGGGLVQAGGSLRLSCAASGFTFAYYAMGWYRQAPGKERELVAAITGSGGRTYYADSVKGRFTISRDNAKNTVYLQMNSLKPEDTAVYYCAADRTVYYLSRTGYDYWGQGTQVTVSS” the “polyreactivity (PSR sort gate)” value was “high polyreactivity”.
In the case of “QVQLVESGGGLVQAGGSLRLSCAASGFTFAYYAMGWYRQAPGKERELVAAITVSGASTYYADSVKGRFTISRDNAKNTVYLQMNSLKPEDTAVYYCNASSVSFYYLEPSQPMDYWGQGTQVTVSS”, the “polyreactivity (PSR sort gate)” value is reported as “high polyreactivity”.
For “QVQLVESGGGLVQAGGSLRLSCAASGFTFAYYDMGWYRQAPGKERELVAAITWDGGSTYYADSVKGRFTISRDNAKNTVYLQMNSLKPEDTAVYYCAAPSGPYGYDYWGQGTQVTVSS”, the “polyreactivity (PSR sort gate)” value was “high polyreactivity”.
With “QVQLVESGGGLVQAGGSLRLSCAASGFTFCDYAKGWYRQATGKERELVAAISDNDGSTDYADSVKGRFTISRDNAKNTVYLQMTRLKPEDSAVYYCNAESELPSKEGDYWGLGTQVTVSS” the “polyreactivity (PSR sort gate)” value was “low polyreactivity”.
For “QVQLVESGGGLVQAGGSLRLSCAASGFTFDDYTMGWYRQAPGKEREFVAAISSSGGSTYYADSVKGRFTISRDNAKNTVYLQMNSLKPEDTAVYYCAADARYYDYYEYDYWGQGTQVTVSS”, the “polyreactivity (PSR sort gate)” value was “high polyreactivity”.
For “QVQLVESGGGLVQAGGSLRLSCAASGFTFDFYAMGWYRQAPGKERELVATISYSGASTYYADSVKGRFTISRDNAKNTIYLQLNSLKPEDTAVYYCNAESSYYYGTAAYEYWGQGTQVTVSS”, the “polyreactivity (PSR sort gate)” value was “low polyreactivity”.
For “QVQLVESGGGLVQAGGSLRLSCAASGFTFDFYAMGWYRQAPGKERELVAVISSSGRTYYADSVKGRFTISRDNAKNTVYLQMNSLKPEDTAVYYCAAKAKRGHTYDYWGQGTQVTVSS”, the “polyreactivity (PSR sort gate)” value was “high polyreactivity”.
With “QVQLVESGGGLVQAGGSLRLSCAASGFTFDGYAMGWYRQAPGKERELVAAISDSGDSTYYADSVKGRFTISRDNAKNTVYLQMNSLKPEDTAVYYCNADAYGTPEFTSYAVRYDYWGQGTQVTVSS” the “polyreactivity (PSR sort gate)” value was “low polyreactivity”.
For “QVQLVESGGGLVQAGGSLRLSCAASGFTFDIYGMGWYRQAPGNERDLVASITSRSARTYYAYSVKGRFTISRDNAKNTVYLQMNSLKPEDTAVYYCAAYYWQCTYDSRRTGWRLMNYWGQGTQVTVSS”, the “polyreactivity (PSR sort gate)” value was “high polyreactivity”.
With “QVQLVESGGGLVQAGGSLRLSCAASGFTFDKKVMGWYRLAPGKERELVAANSVRGGTTYYADSVKGRFTISRDYAKNTVYLQMNSLKPEDSAVYDCAARAYGPPARYESWGQGTQVTVSS” the “polyreactivity (PSR sort gate)” value was “low polyreactivity”.
In the case of “QVQLVESGGGLVQAGGSLRLSCAASGFTFDPYAMGWYRQAPGKERELVAAIDYSGGTTYYADSVKGRFTISRDNAKNTVYLQMNSLKPEDTAVYYCAAEYTYYHWWGYDYWGQGTQVTVSS”, the “polyreactivity (PSR sort gate)” value is reported as “high polyreactivity”.
With “QVQLVESGGGLVQAGGSLRLSCAASGFTFDQYAMGWYRQAPGKEREFVAAINQSTGSTYYADSVKGRFTISRDNAKNTVYLQMISLKPEDTAVYYCAAEESSTSSEYDYWGQGTQVTVSS” the “polyreactivity (PSR sort gate)” value was “low polyreactivity”.
With “QVQLVESGGGLVQAGGSLRLSCAASGFTFDSNAMGWYRQAPGKERELVAAISASGDSTYYADSVKGRFTISRDNAKNTVYLQMNSLKPEDTAVYYCAADRFYGGWRFDHWGQGTQVTVSS” the “polyreactivity (PSR sort gate)” value was “low polyreactivity”.
In the case of “QVQLVESGGGLVQAGGSLRLSCAASGFTFDSYDMGGYRQAPGKERVLVAAITWSGGSTYYADSVKGRFTISRDYAKNTVYLQMNSLKPEDTAVYYGNADTGTYWVPWYHDGYDYWGQGTQVTVSS”, the “polyreactivity (PSR sort gate)” value is reported as “low polyreactivity”.
For “QVQLVESGGGLVQAGGSLRLSCAASGFTFDTNAMGWYRQAPGKERELVAAISWGGDTTYYADSVKGRFTISRDNAKNTVYLQMNSLKTEDTAVYYCNVYWYDWWGYDYWGQGTQVTVSS”, the “polyreactivity (PSR sort gate)” value was “high polyreactivity”.
